Measurements taken from the supplement of paper PMC9112550, “Optimization of the antimicrobial peptide Bac7 by deep mutational scanning” (BMC Biology, 2022).

System: Escherichia coli TOP10
Test: shrunken log2 fold change of peptide-encoding DNA abundance (4.5 h post-induction vs induction); higher = less antimicrobial activity (less host growth inhibition)
Settings: time post-induction: 4.5 h; library: site-saturation at positions 5, 18, 19, 20
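Note: peptides expressed intracellularly from a pBAD plasmid library in pooled LB shake-flask culture, induced with 0.3% L-arabinose, DNA abundance read by NGS, three biological replicates, DESeq2 with apeglm shrinkage.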

Sequence | shrunken log2 fold change
RRIRSRPPRLPRPRPRPTMVPRP | 0.0872
RRIRSRPPRLPRPRPRPTNLPRP | -0.215
RRIRSRPPRLPRPRPRPTPTPRP | 0.676
RRIRSRPPRLPRPRPRPTQIPRP | 0.048
RRIRSRPPRLPRPRPRPTRRPRP | 0.109
RRIRSRPPRLPRPRPRPTSKPRP | 0.0753
RRIRSRPPRLPRPRPRPTTSPRP | 0.094
RRIRSRPPRLPRPRPRPTYEPRP | -0.328
RRIRSRPPRLPRPRPRPTYGPRP | -0.303
RRIRSRPPRLPRPRPRPVATPRP | 0.707
RRIRSRPPRLPRPRPRPVDAPRP | 0.0786
RRIRSRPPRLPRPRPRPVECPRP | -0.0425
RRIRSRPPRLPRPRPRPVEVPRP | 0.233
RRIRSRPPRLPRPRPRPVGIPRP | -0.012
RRIRSRPPRLPRPRPRPVISPRP | 0.141
RRIRSRPPRLPRPRPRPVIVPRP | -0.191
RRIRSRPPRLPRPRPRPVKRPRP | 0.26
RRIRSRPPRLPRPRPRPVKTPRP | -0.0806
RRIRSRPPRLPRPRPRPVKVPRP | 0.0828
RRIRSRPPRLPRPRPRPVMIPRP | -0.0753
RRIRSRPPRLPRPRPRPVMRPRP | 0.594
RRIRSRPPRLPRPRPRPVNNPRP | -0.363
RRIRSRPPRLPRPRPRPVQSPRP | -0.0536
RRIRSRPPRLPRPRPRPVRLPRP | 0.196
RRIRSRPPRLPRPRPRPVRNPRP | 0.0299

Sequence | shrunken log2 fold change
RRIRSRPPRLPRPRPRPVTKPRP | -0.00403
RRIRSRPPRLPRPRPRPVTPPRP | 0.0877
RRIRSRPPRLPRPRPRPVVNPRP | 0.0966
RRIRSRPPRLPRPRPRPVVTPRP | 0.021
RRIRSRPPRLPRPRPRPVVYPRP | -0.0697
RRIRSRPPRLPRPRPRPVWKPRP | -0.1
RRIRSRPPRLPRPRPRPVYCPRP | -0.138
RRIRSRPPRLPRPRPRPVYYPRP | -0.71
RRIRSRPPRLPRPRPRPWALPRP | -0.0699
RRIRSRPPRLPRPRPRPWCKPRP | 0.149
RRIRSRPPRLPRPRPRPWDFPRP | -0.224
RRIRSRPPRLPRPRPRPWETPRP | -0.0029
RRIRSRPPRLPRPRPRPWFLPRP | -0.565
RRIRSRPPRLPRPRPRPWGWPRP | 0.0685
RRIRSRPPRLPRPRPRPWHSPRP | -0.0018
RRIRSRPPRLPRPRPRPWHVPRP | -0.0882
RRIRSRPPRLPRPRPRPWILPRP | -0.0844
RRIRSRPPRLPRPRPRPWNWPRP | -0.328
RRIRSRPPRLPRPRPRPWPGPRP | -0.139
RRIRSRPPRLPRPRPRPWPLPRP | -0.293
RRIRSRPPRLPRPRPRPWPRPRP | 0.646
RRIRSRPPRLPRPRPRPWQIPRP | 0.0843
RRIRSRPPRLPRPRPRPWQLPRP | -0.018
RRIRSRPPRLPRPRPRPWQNPRP | -0.194
RRIRSRPPRLPRPRPRPWRDPRP | 0.0985

Sequence | shrunken log2 fold change
RRIRSRPPRLPRPRPRPWRLPRP | 0.0899
RRIRSRPPRLPRPRPRPWTIPRP | -0.133
RRIRSRPPRLPRPRPRPWTLPRP | -0.0934
RRIRSRPPRLPRPRPRPWYGPRP | -0.933
RRIRSRPPRLPRPRPRPYCAPRP | -0.698
RRIRSRPPRLPRPRPRPYFDPRP | -0.597
RRIRSRPPRLPRPRPRPYFGPRP | -0.642
RRIRSRPPRLPRPRPRPYGHPRP | -0.00193
RRIRSRPPRLPRPRPRPYHLPRP | -0.415
RRIRSRPPRLPRPRPRPYILPRP | -0.69
RRIRSRPPRLPRPRPRPYIWPRP | -0.108
RRIRSRPPRLPRPRPRPYKFPRP | -0.15
RRIRSRPPRLPRPRPRPYKNPRP | -0.399
RRIRSRPPRLPRPRPRPYLKPRP | -0.0359
RRIRSRPPRLPRPRPRPYLTPRP | -0.429
RRIRSRPPRLPRPRPRPYPHPRP | -0.227
RRIRSRPPRLPRPRPRPYPPPRP | -0.377
RRIRSRPPRLPRPRPRPYPSPRP | -0.203
RRIRSRPPRLPRPRPRPYPVPRP | -0.0856
RRIRSRPPRLPRPRPRPYPYPRP | -0.646
RRIRSRPPRLPRPRPRPYQDPRP | 0.0107
RRIRSRPPRLPRPRPRPYQWPRP | 0.0794
RRIRSRPPRLPRPRPRPYRHPRP | -0.542
RRIRSRPPRLPRPRPRPYSFPRP | -0.795
RRIRSRPPRLPRPRPRPYSQPRP | -0.0604
